According to the supplement of paper PMC10567573:

B1: MYBL2 (parent)
chain: IAKHLKGRLGKQCRERWHNHLNPE

Variants of: B1
Test: protein stability index of a GFP-peptide fusion (GPS, HEK-293T) (PSI 1-6); higher = more stable
Conditions: c terminus: a fixed tail appended
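Also: lentivirally expressed fusions sorted by FACS into six bins by GFP to DsRed ratio, PSI derived from sequencing read proportions per bin multiplied by bin number.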

Variant | protein stability index
IAKHLKGRLGKQCREIWHNHLNPE [R16I] | 1.54
IAKHLKGRLGKQCRELWHNHLNPE [R16L] | 2.06
IAKHLKGRLGKQCREPWHNHLNPE [R16P] | 1.96
IAKHLKGRLGKQCREEWHNHLNPE [R16E] | 2.58
IAKHLKGRLGKQCREVWHNHLNPE [R16V] | 2
IAKHLKGRLGKQCREHWHNHLNPE [R16H] | 1.58
IAKHLKGRLGKQCREAWHNHLNPE [R16A] | 2.21
IAKHLKGRLGKQCREFWHNHLNPE [R16F] | 2.19
IAKHLKGRLGKQCREMWHNHLNPE [R16M] | 2.39
IAKHLKGRLGKQCREYWHNHLNPE [R16Y] | 2.41
IAKHLKGRLGKQCRETWHNHLNPE [R16T] | 2.13
IAKHLKGRLGKQCRENWHNHLNPE [R16N] | 2
IAKHLKGRLGKQCREQWHNHLNPE [R16Q] | 2.12
IAKHLKGRLGKQCREGWHNHLNPE [R16G] | 1.71
IAKHLKGRLGKQCREWWHNHLNPE [R16W] | 4.03
IAKHLKGRLGKQCRESWHNHLNPE [R16S] | 1.85
IAKHLKGRLGKQCRECWHNHLNPE [R16C] | 2.13
IAKHLKGRLGKQCREKWHNHLNPE [R16K] | 2.66
IAKHLKGRLGKQCREDWHNHLNPE [R16D] | 2.08
IAKHLKGRLGKQCRERPHNHLNPE [W17P] | 3.13
IAKHLKGRLGKQCRERKHNHLNPE [W17K] | 2.94
IAKHLKGRLGKQCREREHNHLNPE [W17E] | 3.22
IAKHLKGRLGKQCRERIHNHLNPE [W17I] | 2.14
IAKHLKGRLGKQCRERRHNHLNPE [W17R] | 2.4

Variant | protein stability index
IAKHLKGRLGKQCRERMHNHLNPE [W17M] | 2.31
IAKHLKGRLGKQCRERAHNHLNPE [W17A] | 2.35
IAKHLKGRLGKQCRERHHNHLNPE [W17H] | 2.69
IAKHLKGRLGKQCRERYHNHLNPE [W17Y] | 2.38
IAKHLKGRLGKQCRERDHNHLNPE [W17D] | 2.4
IAKHLKGRLGKQCRERVHNHLNPE [W17V] | 2.08
IAKHLKGRLGKQCRERNHNHLNPE [W17N] | 2.8
IAKHLKGRLGKQCRERFHNHLNPE [W17F] | 2.81
IAKHLKGRLGKQCRERSHNHLNPE [W17S] | 2.53
IAKHLKGRLGKQCRERTHNHLNPE [W17T] | 2.69
IAKHLKGRLGKQCRERLHNHLNPE [W17L] | 2.96
IAKHLKGRLGKQCRERQHNHLNPE [W17Q] | 2.71
IAKHLKGRLGKQCRERGHNHLNPE [W17G] | 2.52
IAKHLKGRLGKQCRERCHNHLNPE [W17C] | 2.3
IAKHLKGRLGKQCRERWHNKLNPE [H20K] | 2.18
IAKHLKGRLGKQCRERWHNDLNPE [H20D] | 1.96
IAKHLKGRLGKQCRERWHNNLNPE [H20N] | 2.1
IAKHLKGRLGKQCRERWHNILNPE [H20I] | 1.77
IAKHLKGRLGKQCRERWHNGLNPE [H20G] | 1.87
IAKHLKGRLGKQCRERWHNALNPE [H20A] | 1.69
IAKHLKGRLGKQCRERWHNELNPE [H20E] | 2.35
IAKHLKGRLGKQCRERWHNMLNPE [H20M] | 1.06
IAKHLKGRLGKQCRERWHNFLNPE [H20F] | 1.92
IAKHLKGRLGKQCRERWHNCLNPE [H20C] | 2.44

Variant | protein stability index
IAKHLKGRLGKQCRERWHNLLNPE [H20L] | 2.42
IAKHLKGRLGKQCCERWHNHLNPE [R14C] | 1.77
IAKHLKGRLGKQCAERWHNHLNPE [R14A] | 2
IAKHLKGRLGKQCQERWHNHLNPE [R14Q] | 2.52
IAKHLKGRLGKQCNERWHNHLNPE [R14N] | 2.62
IAKHLKGRLGKQCVERWHNHLNPE [R14V] | 1.74
IAKHLKGRLGKQCYERWHNHLNPE [R14Y] | 2.12
IAKHLKGRLGKQCWERWHNHLNPE [R14W] | 1.82
IAKHLKGRLGKQCHERWHNHLNPE [R14H] | 2.3
IAKHLKGRLGKQCPERWHNHLNPE [R14P] | 2.64
IAKHLKGRLGKQCFERWHNHLNPE [R14F] | 1.47
IAKHLKGRLGKQCGERWHNHLNPE [R14G] | 2.03
IAKHLKGRLGKQCSERWHNHLNPE [R14S] | 1.5
IAKHLKGRLGKQCKERWHNHLNPE [R14K] | 1.87
IAKHLKGRLGKQCMERWHNHLNPE [R14M] | 1.29
IAKHLKGRLGKQCLERWHNHLNPE [R14L] | 1.63
IAKHLKGRLGKQCIERWHNHLNPE [R14I] | 1.83
IAKHLKGRLGKQCDERWHNHLNPE [R14D] | 2.56
IAKHLKGRLGKQCEERWHNHLNPE [R14E] | 2.59
IAKHLKGRLGKQCTERWHNHLNPE [R14T] | 2.61
IAKHLKGRLWKQCRERWHNHLNPE [G10W] | 2.56
IAKHLKGRLVKQCRERWHNHLNPE [G10V] | 2.54
IAKHLKGRLSKQCRERWHNHLNPE [G10S] | 1.99
IAKHLKGRLRKQCRERWHNHLNPE [G10R] | 1.67

Variant | protein stability index
IAKHLKGRLTKQCRERWHNHLNPE [G10T] | 2.16
IAKHLKGRLPKQCRERWHNHLNPE [G10P] | 2.22
IAKHLKGRLYKQCRERWHNHLNPE [G10Y] | 2.49
IAKHLKGRLQKQCRERWHNHLNPE [G10Q] | 1.96
IAKHLKGRLGCQCRERWHNHLNPE [K11C] | 2.09
IAKHLKGRLGLQCRERWHNHLNPE [K11L] | 2.36
IAKHLKGRLGVQCRERWHNHLNPE [K11V] | 2.12
IAKHLKGRLGMQCRERWHNHLNPE [K11M] | 2.69
IAKHLKGRLGTQCRERWHNHLNPE [K11T] | 1.67
IAKHLKGRLGAQCRERWHNHLNPE [K11A] | 2.06
IAKHLKGRLGIQCRERWHNHLNPE [K11I] | 1.97
IAKHLKGRLGGQCRERWHNHLNPE [K11G] | 3.92
IAKHLKGRLGPQCRERWHNHLNPE [K11P] | 1.75
IAKHLKGRLGHQCRERWHNHLNPE [K11H] | 2.41
IAKHLKGRLGYQCRERWHNHLNPE [K11Y] | 2.02
IAKHLKGRLGRQCRERWHNHLNPE [K11R] | 1.95
IAKHLKGRLGDQCRERWHNHLNPE [K11D] | 2.47
IAKHLKGRLGEQCRERWHNHLNPE [K11E] | 2.46
IAKHLKGRLGFQCRERWHNHLNPE [K11F] | 1.4
IAKHLKGRLGSQCRERWHNHLNPE [K11S] | 2.43
IAKHLKGRLGQQCRERWHNHLNPE [K11Q] | 1.79
IAKHLKGRLGWQCRERWHNHLNPE [K11W] | 2.44
